Data: PMC11914125

Assays:
[1] = target: DNA polymerase beta (full-length) (Homo sapiens) (UniProt P06746); assay: EMSA; details: EMSA: 20 nM NCP, 20 mM HEPES pH 7.5, 100 mM NaCl, 1 mM EDTA, 1 mM DTT, 0.1 mg/ml BSA, 20 min, 4 °C, 5% native PAGE, 0.2x TBE
[2] = target: Pol beta lyase domain (8 kDa) (rat) (UniProt P06766); assay: EMSA; details: EMSA: 20 nM NCP, 20 mM HEPES pH 7.5, 100 mM NaCl, 1 mM EDTA, 1 mM DTT, 0.1 mg/ml BSA, 20 min, 4 °C, 5% native PAGE, 0.2x TBE

Sequence | Kd ([1]; 5'-phosphate on strand 3) [nM] | also measured
ATCGGATGTATATATCTGACACGTGCCTGGAGACTAGGGAGTAATCCCCTTGGCGGTTAAAACGCGGGGGACAGCGCGTACGTGCGTTTAAGCGGTGCTAGAGCTGTCTACGACCAATTGAGCGGCCTCGGCACCGGGATTCTCGAT / ATCGAGAATCCCGGTGCCGAGGCCGCTCAATTGGTCGTAGACAGCTCTAGCACCGCTTAAACGCACGTACGCGCTGTCCCCCGCGT / TTAACCGCCAAGGGGATTACTCCCTAGTCTCCAGGCACGTGTCAGATATATCCATCCGAT [Gap-NCP-1.5] | 149 | 
ATCGGATGTATATATCTGACACGTGCCTGGAGACTAGGGAGTAATCCCCTTGGCGGTTAAAACGCGGGGGACAGCGCGTACGTGCGTTTAAGCGGTGCTAGAGCTGTCTACGACCAATTGAGCGGCCTCGGCACCGGGATTCTCGAT / ATCGAGAATCCCGGTGCCGAGGCCGCTCAATTGGTCGTAGACAGCTCTAGCACCGCTTAAACGCACGTACGCGCTGTCCCCCGCGTTTTAACCGCCAAGGGGATTACTCCCTA / TCTCCAGGCACGTGTCAGATATATCCATCCGAT [Gap-NCP-4.5+4] | 94 | 
ATCGGATGTATATATCTGACACGTGCCTGGAGACTAGGGAGTAATCCCCTTGGCGGTTAAAACGCGGGGGACAGCGCGTACGTGCGTTTAAGCGGTGCTAGAGCTGTCTACGACCAATTGAGCGGCCTCGGCACCGGGATTCTCGAT / ATCGAGAATCCCGGTGCCGAGGCCGCTCAATTGGTCGTAGACAGCTCTAGCACCGCTTAAACGCACGTACGCGCTGTCCCCCGCGTTTTAACCGCCAAGGGGATTACTCCCTAGTCTCCAGGCACGT / TCAGATATATCCATCCGAT [Gap-NCP-5.5] | 51 | 
ATCGGATGTATATATCTGACACGTGCCTGGAGACTAGGGAGTAATCCCCTTGGCGGTTAAAACGCGGGGGACAGCGCGTACGTGCGTTTAAGCGGTGCTAGAGCTGTCTACGACCAATTGAGCGGCCTCGGCACCGGGATTCTCGAT (double strand) [ND-NCP] |  | Kd [1]: 217 nM; Kd [2]: 451 nM
ATCGGATGTATATATCTGACACGTGCCTGGAGACTAGGGAGTAATCCCCTTGGCGGTTAAAACGCGGGGGACAGCGCGTACGTGCGTTTAAGCGGTGCTAGAGCTGTCTACGACCAATTGAGCGGCCTCGGCACCGGGATTCTCGAT / ATCGAGAATCCCGGTGCCGAGGCCGCTCAATTGGTCGTAGACAGCTCTAGCACCGCTTAAACGCACGTACGCGCTGTCCCCCGCGTTTTAACCGCCAAGGGGATTACTCCCTAGTCT / CAGGCACGTGTCAGATATATACATCCGAT [Gap-NCP-4.5] | 98 | Kd ([2]; 5'-phosphate on strand 3): 125 nM
ATCGGATGTATATATCTGACACGTGCCTGGAGACTAGGGAGTAATCCCCTTGGCGGTTAAAACGCGGGGGACAGCGCGTACGTGCGTTTAAGCGGTGCTAGAGCTGTCTACGACCAATTGAGCGGCCTCGGCACCGGGATTCTCGAT / ATCGAGAATCCCGGTGCCGAGGCCGCTCAATTGGTCGTAGACAGCTCTAGCACCGCTTAAACGCACGTACGCGCTGTCCCCCGCGTTTTAACCGCCAAGGGGATTACTCCCTAGT / TCCAGGCACGTGTCAGATATATCCATCCGAT [Gap-NCP-4.5+2] | 137 | 
ATCGGATGTATATATCTGACACGTGCCTGGAGACTAGGGAGTAATCCCCTTGGCGGTTAAAACGCGGGGGACAGCGCGTACGTGCGTTTAAGCGGTGCTAGAGCTGTCTACGACCAATTGAGCGGCCTCGGCACCGGGATTCTCGAT / ATCGAGAATCCCGGTGCCGAGGCCGCTCAATTGGTCGTAGACAGCTCTAGCACCGCTTAAACGCACGTACGCGCTGTCCCCCGCGTTTTAACCGCCAAGGGGATTA / TCCCTAGTCTCCAGGCACGTGTCAGATATATCCATCCGAT [Gap-NCP-3.5] | 141 | 
ATCGGATGTATATATCTGACACGTGCCTGGAGACTAGGGAGTAATCCCCTTGGCGGTTAAAACGCGGGGGACAGCGCGTACGTGCGTTTAAGCGGTGCTAGAGCTGTCTACGACCAATTGAGCGGCCTCGGCACCGGGATTCTCGAT / ATCGAGAATCCCGGTGCCGAGGCCGCTCAATTGGTCGTAGACAGCTCTAGCACCGCTTAAACGCACGTACGCGCTGTCCCCCGCGTTTTAACCGCCAAGGGGATTACTCCCTAG / CTCCAGGCACGTGTCAGATATATCCATCCGAT [Gap-NCP-4.5+3] | 115 | 
ATCGGATGTATATATCTGACACGTGCCTGGAGACTAGGGAGTAATCCCCTTGGCGGTTAAAACGCGGGGGACAGCGCGTACGTGCGTTTAAGCGGTGCTAGAGCTGTCTACGACCAATTGAGCGGCCTCGGCACCGGGATTCTCGAT / ATCGAGAATCCCGGTGCCGAGGCCGCTCAATTGGTCGTAGACAGCTCTAGCACCGCTTAAACGCACGTACGCGCTGTCCCCCGCGTTTTAACCGC / AAGGGGATTACTCCCTAGTCTCCAGGCACGTGTCAGATATATCCATCCGAT [Gap-NCP-2.5] | 118 | 
